Test results as given in publication PMC3822002 (Chembiochem : a European journal of chemical biology, 2013).

Experiments:
[1] = target: Nedd8 activating enzyme (NAE), heterodimer of APPBP1 and Uba3 (UniProt Q13564)
[2] = target: T1, NAE (Homo sapiens, UniProt Q13564+Q8TBC4); details: covalent adduct with the C-terminus of Nedd8; ref [16], [30]; cited from earlier work
T1 sequence (Q8TBC4 1-463): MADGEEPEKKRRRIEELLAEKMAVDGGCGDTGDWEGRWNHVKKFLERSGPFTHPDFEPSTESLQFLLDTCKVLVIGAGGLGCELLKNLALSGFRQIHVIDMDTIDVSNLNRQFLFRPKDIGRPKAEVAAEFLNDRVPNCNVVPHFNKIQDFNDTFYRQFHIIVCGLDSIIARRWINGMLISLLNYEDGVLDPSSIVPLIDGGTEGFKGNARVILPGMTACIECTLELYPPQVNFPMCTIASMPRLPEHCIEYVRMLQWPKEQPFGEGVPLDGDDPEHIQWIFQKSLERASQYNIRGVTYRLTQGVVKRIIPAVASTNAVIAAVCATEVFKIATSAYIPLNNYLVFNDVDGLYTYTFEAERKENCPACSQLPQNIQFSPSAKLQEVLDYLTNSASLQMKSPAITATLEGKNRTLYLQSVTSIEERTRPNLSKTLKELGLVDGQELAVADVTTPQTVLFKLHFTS
T1 sequence (Q13564 1-534): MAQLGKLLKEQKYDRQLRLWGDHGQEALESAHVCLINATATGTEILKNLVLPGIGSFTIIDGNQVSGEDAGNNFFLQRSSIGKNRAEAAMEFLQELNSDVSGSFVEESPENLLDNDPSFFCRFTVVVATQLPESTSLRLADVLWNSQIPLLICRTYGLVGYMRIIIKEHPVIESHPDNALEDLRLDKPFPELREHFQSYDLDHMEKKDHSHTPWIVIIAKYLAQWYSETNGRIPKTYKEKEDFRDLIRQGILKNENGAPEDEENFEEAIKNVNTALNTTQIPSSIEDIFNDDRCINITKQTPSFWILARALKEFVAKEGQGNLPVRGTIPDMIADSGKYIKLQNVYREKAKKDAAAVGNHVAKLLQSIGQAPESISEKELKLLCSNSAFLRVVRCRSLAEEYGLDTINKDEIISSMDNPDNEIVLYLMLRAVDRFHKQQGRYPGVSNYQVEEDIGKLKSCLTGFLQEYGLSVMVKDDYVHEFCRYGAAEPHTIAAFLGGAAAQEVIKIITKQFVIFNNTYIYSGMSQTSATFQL

[3] = system: CRL substrates; details: ref [31]–[32]; cited from earlier work
[4] = system: tumor growth; details: ref [31]–[32]; cited from earlier work

Compound	K1/2 of the ATP-PPi exchange reaction catalysed by NAE, saturating ATP [1] [µM]	NAE inhibition [2]	effect on ubiquitination and degradation of CRL substrates [3]	effect on tumor growth [4]
Nedd8 variant ND1 (71LQWFGG76), N-terminal GST fusion (from UniProt Q15843 1-76)	150	–	–	–
wt Nedd8 (71LALRGG76), N-terminal GST fusion (from UniProt Q15843 1-76) (natural protein)	1.3	–	–	–
Nedd8 variant ND20 (71ILTFGG76), N-terminal GST fusion (from UniProt Q15843 1-76)	0.45	–	–	–
Nedd8 variant ND4 (71RLWFGG76), N-terminal GST fusion (from UniProt Q15843 1-76)	4.5	–	–	–
NS(=O)(=O)OC[C@@H]1C[C@@H](n2ccc3c(N[C@H]4CCc5ccccc54)ncnc32)C[C@@H]1O [MLN4924]	–	potent inhibitor of NAE	block ubiquitination and degradation of CRL substrates	inhibit tumor growth
